Source: US20140271457A1 (AbbVie / Abbott, published 2014)
Residue numbers refer to the chain shown, from its start.

B1: DVD2783 (bispecific antibody, IgG1)
VH: EVQLVQSGAEVKKPGASVKVSCKASGYTFANYGIIWVRQAPGQGLEWMGWINTYTGKPTYAQKFQGRVTMTTDTSTSTAYMELSSLRSEDTAVYYCARKLFTTMDVTDNAMDYWGQGTTVTVSSGGGGSGGGGSEVTLRESGPGLVKPTQTLTLTCTLYGFSLSTSDMGVDWIRQPPGKGLEWLAHIWWDDVKRYNPALKSRLTISKDTSKNQVVLKLTSVDPVDTATYYCARTVSSGYIYYAMDYWGQGTLVTVSS
VL: DIQMTQSPSSLSASVGDRVTITCRASQDISQYLNWYQQKPGKAPKLLIYYTSRLQSGVPSRFSGSGSGTDFTLTISSLQPEDFATYFCQQGNTWPPTFGQGTKLEIKRGGSGGGGSGDIQMTQSPSSLSASVGDRVTISCRASQDIRNYLNWYQQKPGKAPKLLIFYTSKLHSGVPSRFSGSGSGTDYTLTISSLQPEDIATYYCQQGLTPPLTFGGGTKVEIKR
B2: DVD2689 (bispecific antibody, IgG1)
VH: EVTLRESGPGLVKPTQTLTLTCTLYGFSLSTSDMGVDWIRQPPGKGLEWLAHIWWDDVKRYNPALKSRLTISKDTSKNQVVLKLTSVDPVDTATYYCARTVSSGYIYYAMDYWGQGTLVTVSSASTKGPEVQLVESGGGLVQPGGSLRLSCAASGFTFSNYGVTWVRQAPGKGLEWVSMIWADGSTHYASSVKGRFTISRDNSKNTLYLQMNSLRAEDTAVYYCAREWQHGPVAYWGQGTLVTVSS
VL: DIQMTQSPSSLSASVGDRVTISCRASQDIRNYLNWYQQKPGKAPKLLIFYTSKLHSGVPSRFSGSGSGTDYTLTISSLQPEDIATYYCQQGLTPPLTFGGGTKVEIKRTVAAPDIQMTQSPSSLSASVGDRVTITCRASQLVSSAVAWYQQKPGKAPKLLIYWASARHTGVPSRFSGSGSGTDFTLTISSLQPEDFATYYCQQHYKTPFTFGQGTKLEIKR
B3: DVD2739 (bispecific antibody, IgG1)
VH: B2 VH with T164E, M179G, S190D, S191T, G194S
VL: B2 VL with R137K, A166T, R167L, K206R
B4: DVD2742 (bispecific antibody, IgG1)
VH: EVTLRESGPGLVKPTQTLTLTCTLYGFSLSTSDMGVDWIRQPPGKGLEWLAHIWWDDVKRYNPALKSRLTISKDTSKNQVVLKLTSVDPVDTATYYCARTVSSGYIYYAMDYWGQGTLVTVSSASTKGPSVFPLAPEVQLVESGGGLVQPGGSLRLSCAASGFTFSNYGVEWVRQAPGKGLEWVSGIWADGSTHYADTVKSRFTISRDNSKNTLYLQMNSLRAEDTAVYYCAREWQHGPVAYWGQGTLVTVSS
VL: B2 VL with R137K, A166T, R167L, K206R
B5: DVD2741 (bispecific antibody, IgG1)
VH: B2 VH with T164E, M179G, S190D, S191T, G194S
VL: DIQMTQSPSSLSASVGDRVTISCRASQDIRNYLNWYQQKPGKAPKLLIFYTSKLHSGVPSRFSGSGSGTDYTLTISSLQPEDIATYYCQQGLTPPLTFGGGTKVEIKRTVAAPSVFIFPPDIQMTQSPSSLSASVGDRVTITCKASQLVSSAVAWYQQKPGKAPKLLIYWASTLHTGVPSRFSGSGSGTDFTLTISSLQPEDFATYYCQQHYRTPFTFGQGTKLEIKR
B6: DVD2692 (bispecific antibody, IgG1)
VH: B4 VH with E171T, G186M, D197S, T198S, S201G
VL: B2 VL
B7: DVD2688 (bispecific antibody, IgG1)
VH: EVTLRESGPGLVKPTQTLTLTCTLYGFSLSTSDMGVDWIRQPPGKGLEWLAHIWWDDVKRYNPALKSRLTISKDTSKNQVVLKLTSVDPVDTATYYCARTVSSGYIYYAMDYWGQGTLVTVSSGGGGSGGGGSEVQLVESGGGLVQPGGSLRLSCAASGFTFSNYGVTWVRQAPGKGLEWVSMIWADGSTHYASSVKGRFTISRDNSKNTLYLQMNSLRAEDTAVYYCAREWQHGPVAYWGQGTLVTVSS
VL: DIQMTQSPSSLSASVGDRVTISCRASQDIRNYLNWYQQKPGKAPKLLIFYTSKLHSGVPSRFSGSGSGTDYTLTISSLQPEDIATYYCQQGLTPPLTFGGGTKVEIKRGGSGGGGSGDIQMTQSPSSLSASVGDRVTITCRASQLVSSAVAWYQQKPGKAPKLLIYWASARHTGVPSRFSGSGSGTDFTLTISSLQPEDFATYYCQQHYKTPFTFGQGTKLEIKR
B8: DVD2738 (bispecific antibody, IgG1)
VH: B7 VH with T168E, M183G, S194D, S195T, G198S
VL: B7 VL with R141K, A170T, R171L, K210R
B9: DVD2789 (bispecific antibody, IgG1)
VH: EVTLRESGPGLVKPTQTLTLTCTLYGFSLSTSDMGVDWIRQPPGKGLEWLAHIWWDDVKRYNPALKSRLTISKDTSKNQVVLKLTSVDPVDTATYYCARTVSSGYIYYAMDYWGQGTLVTVSSASTKGPEVQLVQSGAEVKKPGASVKVSCKASGYTFANYGIIWVRQAPGQGLEWMGWINTYTGKPTYAQKFQGRVTMTTDTSTSTAYMELSSLRSEDTAVYYCARKLFTTMDVTDNAMDYWGQGTTVTVSS
VL: DIQMTQSPSSLSASVGDRVTISCRASQDIRNYLNWYQQKPGKAPKLLIFYTSKLHSGVPSRFSGSGSGTDYTLTISSLQPEDIATYYCQQGLTPPLTFGGGTKVEIKRTVAAPDIQMTQSPSSLSASVGDRVTITCRASQDISQYLNWYQQKPGKAPKLLIYYTSRLQSGVPSRFSGSGSGTDFTLTISSLQPEDFATYFCQQGNTWPPTFGQGTKLEIKR
B10: DVD2788 (bispecific antibody, IgG1)
VH: EVTLRESGPGLVKPTQTLTLTCTLYGFSLSTSDMGVDWIRQPPGKGLEWLAHIWWDDVKRYNPALKSRLTISKDTSKNQVVLKLTSVDPVDTATYYCARTVSSGYIYYAMDYWGQGTLVTVSSGGGGSGGGGSEVQLVQSGAEVKKPGASVKVSCKASGYTFANYGIIWVRQAPGQGLEWMGWINTYTGKPTYAQKFQGRVTMTTDTSTSTAYMELSSLRSEDTAVYYCARKLFTTMDVTDNAMDYWGQGTTVTVSS
VL: DIQMTQSPSSLSASVGDRVTISCRASQDIRNYLNWYQQKPGKAPKLLIFYTSKLHSGVPSRFSGSGSGTDYTLTISSLQPEDIATYYCQQGLTPPLTFGGGTKVEIKRGGSGGGGSGDIQMTQSPSSLSASVGDRVTITCRASQDISQYLNWYQQKPGKAPKLLIYYTSRLQSGVPSRFSGSGSGTDFTLTISSLQPEDFATYFCQQGNTWPPTFGQGTKLEIKR
B11: DVD2784 (bispecific antibody, IgG1)
VH: EVQLVQSGAEVKKPGASVKVSCKASGYTFANYGIIWVRQAPGQGLEWMGWINTYTGKPTYAQKFQGRVTMTTDTSTSTAYMELSSLRSEDTAVYYCARKLFTTMDVTDNAMDYWGQGTTVTVSSASTKGPEVTLRESGPGLVKPTQTLTLTCTLYGFSLSTSDMGVDWIRQPPGKGLEWLAHIWWDDVKRYNPALKSRLTISKDTSKNQVVLKLTSVDPVDTATYYCARTVSSGYIYYAMDYWGQGTLVTVSS
VL: DIQMTQSPSSLSASVGDRVTITCRASQDISQYLNWYQQKPGKAPKLLIYYTSRLQSGVPSRFSGSGSGTDFTLTISSLQPEDFATYFCQQGNTWPPTFGQGTKLEIKRTVAAPDIQMTQSPSSLSASVGDRVTISCRASQDIRNYLNWYQQKPGKAPKLLIFYTSKLHSGVPSRFSGSGSGTDYTLTISSLQPEDIATYYCQQGLTPPLTFGGGTKVEIKR
B12: DVD2787 (bispecific antibody, IgG1)
VH: EVQLVQSGAEVKKPGASVKVSCKASGYTFANYGIIWVRQAPGQGLEWMGWINTYTGKPTYAQKFQGRVTMTTDTSTSTAYMELSSLRSEDTAVYYCARKLFTTMDVTDNAMDYWGQGTTVTVSSASTKGPSVFPLAPEVTLRESGPGLVKPTQTLTLTCTLYGFSLSTSDMGVDWIRQPPGKGLEWLAHIWWDDVKRYNPALKSRLTISKDTSKNQVVLKLTSVDPVDTATYYCARTVSSGYIYYAMDYWGQGTLVTVSS
VL: B11 VL
B13: DVD2786 (bispecific antibody, IgG1)
VH: B11 VH
VL: DIQMTQSPSSLSASVGDRVTITCRASQDISQYLNWYQQKPGKAPKLLIYYTSRLQSGVPSRFSGSGSGTDFTLTISSLQPEDFATYFCQQGNTWPPTFGQGTKLEIKRTVAAPSVFIFPPDIQMTQSPSSLSASVGDRVTISCRASQDIRNYLNWYQQKPGKAPKLLIFYTSKLHSGVPSRFSGSGSGTDYTLTISSLQPEDIATYYCQQGLTPPLTFGGGTKVEIKR

Molecular target: Recombinant Human TNF-α/TNFSF1A (human, UniProt P01375 77-233)
Sequence (P01375 77-233 limits assumed): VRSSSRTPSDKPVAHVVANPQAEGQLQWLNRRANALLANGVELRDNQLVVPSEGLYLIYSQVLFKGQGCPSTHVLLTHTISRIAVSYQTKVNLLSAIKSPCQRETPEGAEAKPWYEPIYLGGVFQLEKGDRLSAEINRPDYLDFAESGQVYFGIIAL
Assay: cell-based or functional assay

Binder | N-Terminal VD huTNFα Neutralization Assay IC50 | C-Terminal VD huTNFα Neutralization Assay IC50
B1 | 8 pM | –
B2 | – | 76 pM
B3 | – | 517 pM
B4 | – | 129 pM
B5 | – | 202 pM
B6 | – | 40 pM
B7 | – | 93 pM
B8 | – | 452 pM
B9 | – | 186 pM
B10 | – | 230 pM
B11 | 6 pM | –
B12 | 5 pM | –
B13 | 8 pM | –
